Assay results as given in the Human Domainome abundance scans (Beltran et al. 2025).

B1: SWI/SNF complex subunit SMARCC1, residues 620 to 663; numbered along this chain, Q92922 (parent)
chain: GREWTEQETLLLLEALEMYKDDWNKVSEHVGSRTQDECILHFLR
B2: Chromodomain-helicase-DNA-binding protein 5, residues 338 to 390; numbered along this chain, Q8TDI0 (parent)
chain: YETDHQDYCEVCQQGGEIILCDTCPRAYHLVCLDPELEKAPEGKWSCPHCEKE

Variants of: B1
Assay: abundance fitness (aPCA) (normalised: wild type 0, dead -1); higher = more abundant; growth selection in yeast, the domain comes from the species named
Details: Homo sapiens

Abundance fitness, by site and new letter:
L43: R 0.507, Q 0.645, I 0.098, H 0.514, K 0.554, P 0.302, Y 0.126, E 0.582, D 0.587, T 0.584, S 0.338, M 0.184, C 0.187, V 0.209, W 0.076, A 0.286, F 0.149, G 0.342
F42: V -0.134, Y 0.349, T -0.007, W 0.401, S 0.25, R 0.337, P 0.405

Variants of: B2
Assay: as above
Details: Homo sapiens

Abundance fitness, by site and new letter:
Y1: V 0.159, K 0.125, S -0.481, N -0.336, F -0.041, E 0.321, R 0.063, W 0.122, G 0.239, D -0.839, C 0.245
Y8: D -0.199, L 0.06, N 0.227, S 0.014, C -0.337, A 0.142, W -0.111, M 0.102, F -0.204, H 0.349, V 0.054, Q 0.437, P 0.33, I 0.241, T -0.088, R 0.211, E 0.306, K -0.067, G 0.078
E2: T 0.488, H 0.022, P -0.175, I 0.814, N 0.405, K 0.529, A -0.071, L 0.287, M 0.789, F 0.018, V -0.484, G 0.072, C 0.423, R 0.267, W -0.092, S 0.451
D4: M 0.627, A 0.244, W -0.014, R 0.054, C 0.128, L 0.095, H -0.056, P -0.049, I 0.03, T -0.008, Y -0.337, F 0.04, E 0.081, G 0.001, Q 0.368, K 0.073, N 0.106, V 0.117
H5: A 0.488, T 0.116, M 0.497, P 0.124, L 0.375, I 0.079, W -0.038, R 0.192, D -0.81, C 0.394, Q -0.046, K 0.021, F -0.144, N -0.072, V 0.464, S 0.293, E 0.024, G 0.185
C9: L -0.844, A -0.726, M -0.803, F -1.18, I -0.774, G -0.593, D -0.618, H -0.397, N -0.764, E -0.611, K -0.804
Q6: P 0.25, S -0.047, G -0.313, W -0.421, H -0.286, V -0.199, L -0.286, R -0.183, Y -0.422, D -0.199, C -0.153, F -0.234, A 0.193, E -0.186
D7: R -0.154, N -0.129, T 0.112, I -0.317, G -0.252, Q 0.176, C -0.669, L -0.527, Y -0.676, W -0.613, K -0.313, F -0.725, M 0.167, S -0.257, E -0.255, A -0.045, H -0.296, V 0.096
T3: A 0.098, G 0.342, W 0.236, M 0.567, H -0.407, V 0.027, N -0.37, D 0.023, S 0.077, R 0.119, I 0.465, C -0.267, E 0.268, Y 0.171, F 0.275, K 0.264, Q 0.05
